Results: patent US20190241648A1 (STATEN BIOTECHNOLOGY B V, published 2019)
Ends that are not written are not given here.

How the values were obtained:
Test in all cases: peptide microarray
ApoC3 peptide … D68P = target: T1, ApoC3 peptide … D68P (human, cyclic constrained)
T1 peptide: DKFSEFWDLPPEV
In short: (§1)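 ApoC3 peptide microarrays incubated with antibody samples and then stained with goat anti-human IgG (Fc) DyLight680 plus anti-HA DyLight800 control antibody. Scanned at intensity 7/7 (red/green); a secondary-only prestain checked for background, and framing HA peptides served as quality control.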

ApoC3 peptide … F64G = target: T2, ApoC3 peptide … F64G (human, not fully specified (bridges); also: cyclic constrained)
T2 peptide: DKFSEGWDLDPEV
In short: as §1

ApoC3 peptide … V71C = ApoC3 peptide … V71C (human, cyclic constrained)
In short: as §1

ApoC3 peptide … E70M = target: T3, ApoC3 peptide … E70M (human, not fully specified (bridges); also: cyclic constrained)
T3 peptide: DKFSEFWDLDPMV
In short: as §1

ApoC3 peptide … E63V = ApoC3 peptide … E63V (human, cyclic constrained)
In short: as §1

ApoC3 peptide … F64E = target: T4, ApoC3 peptide … F64E (human, not fully specified (bridges); also: cyclic constrained)
T4 peptide: DKFSEEWDLDPEV
In short: as §1

ApoC3 peptide … L67K = target: T5, ApoC3 peptide … L67K (human, not fully specified (bridges); also: cyclic constrained)
T5 peptide: DKFSEFWDKDPEV
In short: as §1

ApoC3 peptide … D66T = target: T6, ApoC3 peptide … D66T (human, not fully specified (bridges); also: cyclic constrained)
T6 peptide: DKFSEFWTLDPEV
In short: as §1

ApoC3 peptide … L67T = target: T7, ApoC3 peptide … L67T (human, not fully specified (bridges); also: cyclic constrained)
T7 peptide: DKFSEFWDTDPEV
In short: as §1

ApoC3 peptide … F61I = target: T8, ApoC3 peptide … F61I (human, cyclic constrained)
T8 peptide: DKISEFWDLDPEV
In short: as §1

ApoC3 peptide … V71G = ApoC3 peptide … V71G (human, cyclic constrained)
In short: as §1

ApoC3 peptide … F64S = target: T9, ApoC3 peptide … F64S (human, not fully specified (bridges); also: cyclic constrained)
T9 peptide: DKFSESWDLDPEV
In short: as §1

ApoC3 peptide … D66G = target: T10, ApoC3 peptide … D66G (human, not fully specified (bridges); also: cyclic constrained)
T10 peptide: DKFSEFWGLDPEV
In short: as §1

ApoC3 peptide … D68V = ApoC3 peptide … D68V (human, cyclic constrained)
In short: as §1

ApoC3 peptide … F61K = target: T11, ApoC3 peptide … F61K (human, not fully specified (bridges); also: cyclic constrained)
T11 peptide: DKKSEFWDLDPEV
In short: as §1

ApoC3 peptide … K60P = target: T12, ApoC3 peptide … K60P (human, not fully specified (bridges); also: cyclic constrained)
T12 peptide: DPFSEFWDLDPEV
In short: as §1

ApoC3 peptide … D59K = target: T13, ApoC3 peptide … D59K (human, cyclic constrained)
T13 peptide: KKFSEFWDLDPEV
In short: as §1

ApoC3 peptide … E63S = ApoC3 peptide … E63S (human, cyclic constrained)
In short: as §1

ApoC3 peptide … E63I = ApoC3 peptide … E63I (human, cyclic constrained)
In short: as §1

ApoC3 peptide … D68I = target: T14, ApoC3 peptide … D68I (human, cyclic constrained)
T14 peptide: DKFSEFWDLIPEV
In short: as §1

ApoC3 peptide … S62A = ApoC3 peptide … S62A (human, cyclic constrained)
In short: as §1

ApoC3 peptide … E63G = ApoC3 peptide … E63G (human, cyclic constrained)
In short: as §1

ApoC3 peptide … K60G = target: T15, ApoC3 peptide … K60G (human, not fully specified (bridges); also: cyclic constrained)
T15 peptide: DGFSEFWDLDPEV
In short: as §1

ApoC3 peptide … S62G = ApoC3 peptide … S62G (human, cyclic constrained)
In short: as §1

ApoC3 peptide … D59R = target: T16, ApoC3 peptide … D59R (human, cyclic constrained)
T16 peptide: RKFSEFWDLDPEV
In short: as §1

ApoC3 peptide … D68T = ApoC3 peptide … D68T (human, cyclic constrained)
In short: as §1

ApoC3 peptide … F61N = target: T17, ApoC3 peptide … F61N (human, not fully specified (bridges); also: cyclic constrained)
T17 peptide: DKNSEFWDLDPEV
In short: as §1

ApoC3 peptide … D68E = target: T18, ApoC3 peptide … D68E (human, cyclic constrained)
T18 peptide: DKFSEFWDLEPEV
In short: as §1

ApoC3 peptide … V71F = ApoC3 peptide … V71F (human, cyclic constrained)
In short: as §1

ApoC3 peptide … W65G = target: T19, ApoC3 peptide … W65G (human, not fully specified (bridges); also: cyclic constrained, ring type and places not given here)
T19 peptide: DKFSEFGDLDPEV
In short: as §1

ApoC3 peptide … P69E = target: T20, ApoC3 peptide … P69E (human, not fully specified (bridges); also: cyclic constrained)
T20 peptide: DKFSEFWDLDEEV
In short: as §1

ApoC3 peptide … F64I = target: T21, ApoC3 peptide … F64I (human, not fully specified (bridges); also: cyclic constrained)
T21 peptide: DKFSEIWDLDPEV
In short: as §1

ApoC3 peptide … S62M = ApoC3 peptide … S62M (human, cyclic constrained)
In short: as §1

ApoC3 peptide … W65H = target: T22, ApoC3 peptide … W65H (human, not fully specified (bridges); also: cyclic constrained, ring type and places not given here)
T22 peptide: DKFSEFHDLDPEV
In short: as §1

ApoC3 peptide … V71E = ApoC3 peptide … V71E (human, cyclic constrained)
In short: as §1

ApoC3 peptide … D66V = target: T23, ApoC3 peptide … D66V (human, not fully specified (bridges); also: cyclic constrained)
T23 peptide: DKFSEFWVLDPEV
In short: as §1

ApoC3 peptide … E63W = ApoC3 peptide … E63W (human, cyclic constrained)
In short: as §1

ApoC3 peptide … W65C = ApoC3 peptide … W65C (human, cyclic constrained)
In short: as §1

B1: anti-ApoC3 antibody 6A6 (antibody, V domains shown)
VH: EVQLVESGGGLVQPGGSLRLSCAASGFTFSSYAGRWVRQVPGKGLEWVSSINAGGGSTSYADSVKGRFTISRDNAKNTLYLQMNSLKPEDTAKYYCTQNSYRYWGQGTRVAVSS
VL: DVVLTQTPGSLSVVPGESASISCKASQSLIHTDGKTYLYWLLQKPGQRPQLLIYQVSSHESGVPDRFTGSGSGTDFTLKISGVKAEDAGVYYCAQATYNPRTFGQGTKLEIK
notes: it was detected with goat anti-human IgG (Fc); also called mAb 6A6; llama antibody 6A6
% of binding to wild-type peptide (ApoC3 peptide … D68P): 0%
% of binding to wild-type peptide (ApoC3 peptide … F64G): 168%
% of binding to wild-type peptide (ApoC3 peptide … V71C): 100%
% of binding to wild-type peptide (ApoC3 peptide … E70M): 2.34%
% of binding to wild-type peptide (ApoC3 peptide … E63V): 13%
% of binding to wild-type peptide (ApoC3 peptide … F64E): 236%
% of binding to wild-type peptide (ApoC3 peptide … L67K): 25.8%
% of binding to wild-type peptide (ApoC3 peptide … D66T): 0%
% of binding to wild-type peptide (ApoC3 peptide … L67T): 100%
% of binding to wild-type peptide (ApoC3 peptide … F61I): 44.3%
% of binding to wild-type peptide (ApoC3 peptide … V71G): 109%
% of binding to wild-type peptide (ApoC3 peptide … F64S): 196%
% of binding to wild-type peptide (ApoC3 peptide … D66G): 0%
% of binding to wild-type peptide (ApoC3 peptide … D68V): 0%
% of binding to wild-type peptide (ApoC3 peptide … F61K): 37.2%
% of binding to wild-type peptide (ApoC3 peptide … K60P): 157%
% of binding to wild-type peptide (ApoC3 peptide … D59K): 45.6%
% of binding to wild-type peptide (ApoC3 peptide … E63S): 35.2%
% of binding to wild-type peptide (ApoC3 peptide … E63I): 8.76%
% of binding to wild-type peptide (ApoC3 peptide … D68I): 0%
% of binding to wild-type peptide (ApoC3 peptide … S62A): 97.3%
% of binding to wild-type peptide (ApoC3 peptide … E63G): 20.5%
% of binding to wild-type peptide (ApoC3 peptide … K60G): 117%
% of binding to wild-type peptide (ApoC3 peptide … S62G): 53.9%
% of binding to wild-type peptide (ApoC3 peptide … D59R): 70.2%
% of binding to wild-type peptide (ApoC3 peptide … D68T): 0.69%
% of binding to wild-type peptide (ApoC3 peptide … F61N): 48.3%
% of binding to wild-type peptide (ApoC3 peptide … D68E): 56.9%
% of binding to wild-type peptide (ApoC3 peptide … V71F): 85.4%
% of binding to wild-type peptide (ApoC3 peptide … W65G): 49.5%
% of binding to wild-type peptide (ApoC3 peptide … P69E): 152%
% of binding to wild-type peptide (ApoC3 peptide … F64I): 100%
% of binding to wild-type peptide (ApoC3 peptide … S62M): 63.5%
% of binding to wild-type peptide (ApoC3 peptide … W65H): 17%
% of binding to wild-type peptide (ApoC3 peptide … V71E): 228%
% of binding to wild-type peptide (ApoC3 peptide … D66V): 0%
% of binding to wild-type peptide (ApoC3 peptide … E63W): 1.91%
% of binding to wild-type peptide (ApoC3 peptide … W65C): 16%
